Data as given in IntAct's records for PubMed 22396542.

B1: Ceramide transfer protein (Homo sapiens), Q9Y5P4-2 (parent)
chain: MSDNQSWNSSGSEEDPETESGPPVERCGVLSKWTNYIHGWQDRWVVLKNNALSYYKSEDETEYGCRGSICLSKAVITPHDFDECRFDISVNDSVWYLRAQDPDHRQQWIDAIEQHKTESGYGSESSLRRHGSMVSLVSGASGYSATSTSSFKKGHSLREKLAEMETFRDILCRQVDTLQKYFDACADAVSKDELQRDKVVEDDEDDFPTTRSDGDFLHSTNGNKEKLFPHVTPKGINGIDFKGEAITFKATTAGILATLSHCIELMVKREDSWQKRLDKETEKKRRTEEAYKNAMTELKKKSHFGGPDYEEGPNSLINEEEFFDAVEAALDRQDKIEEQSQSEKVRLHWPTSLPSGDAFSSVGTHRFVQKVEEMVQNHMTYSLQDVGGDANWQLVVEEGEMKVYRREVEENGIVLDPLKATHAVKGVTGHEVCNYFWNVDVRNDWETTIENFHVVETLADNAIIIYQTHKRVWPASQRDVLYLSVIRKIPALTENDPETWIVCNFSVDHDSAPLNNRCVRAKINVAMICQTLVSPPEGNQEISRDNILCKITYVANVNPGGWAPASVLRAVAKREYPKFLKRFTSYVQEKTAGKPILF

Variants of: B1
Conditions: with samp_human APCS
For I413A;W562A, the “effect of a mutation on the interaction” value was “decreasing interaction strength”.
For P474G;A475Q, the “effect of a mutation on the interaction” value was “disrupting interaction strength”.
In the case of V472A;W473A, the “effect of a mutation on the interaction” value is reported as “with no effect”.
With N434A;Y435A the “effect of a mutation on the interaction” value was “with no effect”.
In the case of Y435A;F436A, the “effect of a mutation on the interaction” value is reported as “decreasing interaction strength”.

Variants of: B1
Conditions: with samp_human APCS
Remark: another data set of the same source
With N434A;Y435A the “effect of a mutation on the interaction” value was “decreasing interaction strength”.
